Key:
[1] = collection tubes containing EDTA; ref 3 (Toräng et al.); cited from earlier work
From the text: (§1) Maurer et al. have quoted Toräng et al.'s study on PYY's major cleaving sites but disregarded the outcome from their study of the inhibitory effects of EDTA on metalloendoproteases, neuroendopeptidase (NEP) and Meprin β.[3] […] We have studied the stability of both PYY species with our inhibitor mix containing DPP4 inhibitor and Aprotinin, where we spiked PYY1 –36 and PYY3 –36 into plasma EDTA and LH from three different volunteers.

[2] = Stability of PYY1-36 and PYY3-36 in EDTA and lithium heparin plasma (LC-MS/MS assay validation); type: in vitro ADME, human; conditions: for degradation in plasma at 4°C / degradation in plasma at room temperature / mean percentage difference in concentration, overall and between all tested sample sets: EDTA or LH plasma; for degradation in plasma at 4°C: 3 h time-point at 4°C; for degradation in plasma at 4°C / degradation in plasma at room temperature: with or without inhibitors (DPP4 inhibitor and Aprotinin), spiked samples and healthy volunteer samples, triplicate QCs (low and high); for degradation in plasma at room temperature: 3 h time-point at room temperature (19°C); for mean percentage difference in concentration, overall and between all tested sample sets: presence versus absence of inhibitors, 3 h at 19°C or 4°C, mean of injections of triplicate QCs (low and high); for differences in concentrations with only DPP4 inhibitor and Aprotinin present: spiked into plasma EDTA and LH from three different volunteers, inhibitor mix of DPP4 inhibitor and Aprotinin
Description: We have verified stability of PYY1 –36 and PYY3 –36 at preanalytical, analytical and post‐analytical stages of the assay. At preanalytical stage the whole blood is collected in prechilled lithium heparin (LH) or ethylenediaminetetraacetic acid (EDTA) tubes and containing evaluated in‐house inhibitors (DPP4 inhibitor and Aprotinin). The sample is centrifuged immediately at 4°C and flash‐frozen on dry ice or transferred immediately to a −80°C freezer. The samples are kept at −80°C until being thawed once only for analysis.
We deemed our protease inhibitors sufficient for maintaining stability of PYY1 –36 and PYY3 –36 and inhibiting peptide degradation.
as §1
Furthermore, we have verified the stability of both species of PYY in both EDTA and LH plasma under the following conditions: (1) freezing and thawing up to a second cycle; (2) incubation at 4°C for up to 4 h; (3) long‐term storage (6 months) at −80°C; (4) postextraction, during storage in the autosampler at 4°C. We have verified the stability of our stock and working stock solutions for up to 7 months, stored at […]. We would state that it is a matter of standard operating procedure that we store these solutions at −80°C and discard these at the end of the day of the run after thawing, affording a safety margin. Last, our assay has been validated both with plasma‐based calibrants and QCs, and cross‐validated in a surrogate matrix (20BMA). We also validated matrix effects (ME) in spiked plasma EDTA and plasma LH. Mean percentage ME for PYY1 –36 was 100.7% and for PYY3 –36, 111% in plasma LH. EDTA ME results were reported previously.[2]

| Substance | risk of PYY degradation in collected blood [1] | degradation in plasma at 4°C [2] | degradation in plasma at room temperature [2] | mean percentage difference in concentration, overall and between all tested sample sets [2] | differences in concentrations with only DPP4 inhibitor and Aprotinin present [2] |
| --- | --- | --- | --- | --- | --- |
| PYY: peptide YY, species not specified, as studied by Toräng et al. | small |  |  |  |  |
| peptide YY1 –36 [PYY1 –36] |  | no degradation | no degradation | ≤ 10% | did not detect any significant differences |
| peptide YY3‐36 [PYY3 –36] |  | no degradation | no degradation | ≤ 10% | did not detect any significant differences |

— article PMC10952462, “Commentary on “The road to reliable peptide assays is paved with good guidelines”” (Clinical Endocrinology, 2023)
